Results: doi:10.1101/2024.07.24.604858 (bioRxiv, 2024)
Numbering of substitutions follows the chain as printed. Names may count otherwise.

T1: PfCSP N-junction peptide NPDP_(20aa) (Plasmodium falciparum (matches 3D7 …))
T1 chain: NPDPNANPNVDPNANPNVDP

T2: PfCSP central repeat peptide NANP_(20aa) (Plasmodium falciparum (repeat peptide, …))
T2 chain: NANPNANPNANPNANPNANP

B1: mAb 0786 wt (antibody, V domains shown)
VH: EVQLVESGGGLVQPGRSLRLSCTTSGFTFGDFAMSWVRQAPGKGLEWVGFIRSKANGGSTEYAASVKGRFTISRDDSKSIAYLQMDSLKTEDTAVYYCCRVWIQLWPLDYWGQGTLVTVSS
VL: EIVLTQSPGTLSLSPGERATLSCRASQSIGSSYLAWYQLKPGQAPRLLIYGASSRATGIPDRFSGSGSGTDFTLIISRLEPEDFAVYFCQQYGRSPWTFGQGTKVEIK
B2: mAb 0786 with H.A63P (antibody, V domains shown)
VH: B1 VH with A63P
VL: B1 VL
B3: mAb 0786 with H.N56 reverted to the GL Tyr (antibody, V domains shown)
VH: B1 VH with N56Y
VL: B1 VL
B4: mAb 0786 with Arg introduced at H.59 (antibody, V domains shown)
VH: B1 VH with S59R
VL: B1 VL

Tests used:
[1] = target: T1, PfCSP N-junction peptide NPDP_(20aa); assay: SPR
[2] = target: T2, PfCSP central repeat peptide NANP_(20aa); assay: SPR

Binder	binding result [1]	binding result [2]
B1	binds	binds
B2	binds	binds
B3	binds	binds
B4	binds	binds
